± gives the uncertainty stated by the source.
Experiment: self-splicing fitness, log relative to wild type (ln ratio); higher = more splicing; Tetrahymena group I intron in knt gene, E. coli kanamycin selection, DiMSum; sequences stand for … in CUCUCU…GGAGGGAAAAGUUAUCAGGCAUGCACCUGGUAGCUAGUCUUUAAACCAAUAGAUUGCAUCGGUUUAAAAGGCAAGACCGUCAAAUUGCGGGAAAGGGGUCAACAGCCGUUCAGUACCAAGUCUCAGGGGAAACUUUGAGAUGGCCUUGCAAAGGGUAUGGUAAUAAGCUGACGGACAUGGUCCUAACCACGCAGCCAAGUCCUAAGUCAACAGAUCUUCUGUUGAUAUGGAUGCAGUUCACAGACUAAAUGUCGGUCGGGGAAGAUGUAUUCUUCUCAUAAGAUAUAGUCGGACCUCUCCUUAAUGGGAGCUAGCGGAUGAAGUGAUGCAACACUGGAGCCGCUGGGAACUAAUUUGUAUGCGAAAGUAUAUUGAUUAGUUUUGGAGUACUCGUGGUCG
How it was run: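 Library with all eight P1ex-region intron nucleotides randomised, intron inside the knt kanamycin-resistance gene on pET-22b(+), in E. coli BL21(DE3). Cells grew overnight at 37°C or 30°C on LB agar with or without 25 μg/mL kanamycin (plus 100 μg/mL carbenicillin, 50 μM IPTG, 0.2% rhamnose), in six replicate transformations. Pooled colonies were amplicon-sequenced on Illumina HiSeq 2500. DiMSum fitness is the error-weighted combination of wild-type-normalised replicate fold changes, kanamycin versus none.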

Sequence	self-splicing fitness (ln) (37 °C)	self-splicing fitness (ln) (30 °C)
CUGCAGCAAUAUUACGUUCC	-1.74 ± 0.35	
CUGGAGCAAUAUUACGAAGG	-1.97 ± 0.27	-3.43 ± 0.28
CUGGAGCAAUAUUACGAUUC		-2.02 ± 0.29
CUGGAGCAAUAUUACGAUUG	0.00165 ± 0.13	-1.87 ± 0.12
CUGGAGCAAUAUUACGCGUU	-1.86 ± 0.27	-3.89 ± 0.33
CUGGAGCAAUAUUACGGAGU		-2.37 ± 0.22
CUGGAGCAAUAUUACGGAUA	-1.35 ± 0.25	-3.57 ± 0.48
CUGGAGCAAUAUUACGGCAC	-2.35 ± 0.39	-3.28 ± 0.32
CUGGAGCAAUAUUACGGGGG	-1.89 ± 0.4	-2.27 ± 0.26
CUGGAGCAAUAUUACGGGUG	-0.251 ± 0.078	-1.61 ± 0.079
CUGGAGCAAUAUUACGGUAA	-2.89 ± 0.25	-2.61 ± 0.28
CUGGAGCAAUAUUACGGUAU	-2.49 ± 0.31	-4.78 ± 0.41
CUGGAGCAAUAUUACGGUCA		-2.54 ± 0.47
CUGGAGCAAUAUUACGGUUC		-2.68 ± 0.49
CUGGAGCAAUAUUACGUCUC	-1.16 ± 0.36	-2.68 ± 0.33
CUGGAGCAAUAUUACGUGGU	-2.4 ± 0.35	-3.53 ± 0.22
CUGGAGCAAUAUUACGUUAG	-1.51 ± 0.098	-1.65 ± 0.068
CUGGAGCAAUAUUACGUUCU	-1.68 ± 0.49	-2.43 ± 0.26
CUGUAGCAAUAUUACGAAGU	-1.82 ± 0.27	-2.13 ± 0.23
CUGUAGCAAUAUUACGAAUG	0.429 ± 0.11	-1.12 ± 0.081
CUGUAGCAAUAUUACGAGCA	-2.01 ± 0.31	

Sequence	self-splicing fitness (ln) (37 °C)	self-splicing fitness (ln) (30 °C)
CUGUAGCAAUAUUACGAGGG	-1.14 ± 0.34	-3.5 ± 0.49
CUGUAGCAAUAUUACGAUGG	-1.81 ± 0.19	-2.74 ± 0.18
CUGUAGCAAUAUUACGAUGU	-5.09 ± 0.16	-5.35 ± 0.11
CUGUAGCAAUAUUACGCAGU	-3.65 ± 0.33	-2.29 ± 0.15
CUGUAGCAAUAUUACGCAUA	-2.43 ± 0.41	-2.83 ± 0.47
CUGUAGCAAUAUUACGCCGC	-1.08 ± 0.47	-2.54 ± 0.41
CUGUAGCAAUAUUACGGGGA	-2.9 ± 0.24	-2.67 ± 0.17
CUGUAGCAAUAUUACGGUAG	-1.98 ± 0.25	-2.9 ± 0.21
CUGUAGCAAUAUUACGUAAU	-3.29 ± 0.37	-3.88 ± 0.3
CUGUAGCAAUAUUACGUUAG	-1.77 ± 0.11	-2.72 ± 0.11
CUGUAGCAAUAUUACGUUCA	-1.45 ± 0.15	-3.47 ± 0.24
CUGUAGCAAUAUUACGUUUA	-2.51 ± 0.16	-3.7 ± 0.32
CUUAAGCAAUAUUACGAACU	-2.61 ± 0.38	
CUUAAGCAAUAUUACGAAUG	-0.0976 ± 0.12	-0.541 ± 0.092
CUUAAGCAAUAUUACGAAUU	-0.957 ± 0.17	-3.26 ± 0.22
CUUAAGCAAUAUUACGACCA	-2.04 ± 0.4	-3.3 ± 0.4
CUUAAGCAAUAUUACGACUG	-0.589 ± 0.13	0.139 ± 0.087
CUUAAGCAAUAUUACGAGCC	-3.51 ± 0.48	
CUUAAGCAAUAUUACGAUAA	-3.18 ± 0.35	
CUUAAGCAAUAUUACGAUUC	-2.07 ± 0.26	-4.19 ± 0.46

Reference: the supplement of paper PMC7877785
